Measurements published in article PMC4257719.

Molecular target: P. berghei SPECT1Δ41 (amino acids 42-241) (P. berghei)
Assay: SEC-MALS; TSK-Gel G3000 SWxl column with multiangle static light scattering; 150 mM NaCl, 50 mM Tris or HEPES, pH 7.4; monomer and dimer fractions run separately; the two species are stable over days

Substance: P. berghei SPECT1Δ41 (amino acids 42-241) (domain or fragment)
- stoichiometry N: 2
